For test [1], the target named is NTR1 on HT29 or NTR1-expressing HEK293 cells (UniProt P30989). The experiment in a line: cell-based or functional assay.
The target in test [2] is neurotensin receptor 1 (NTR1), human, prepared from CHO cells recombinantly expressing the human receptor (human) (UniProt P30989).
The target in test [3] is sst (non-selective), somatostatin receptor. The experiment in a line: Cerep ExpresSProfile radioligand competition binding, reference compound (agonist radioligand). (In general: Loss of bound radioactivity is the signal in a displacement assay; it reports binding, not function.)

pIC50, pKi: −log10 of the molar value.

neurotensin receptor 1 (NTR1), human, prepared from CHO cells recombinantly expressing the human receptor (human), sequence (P30989 whole entry): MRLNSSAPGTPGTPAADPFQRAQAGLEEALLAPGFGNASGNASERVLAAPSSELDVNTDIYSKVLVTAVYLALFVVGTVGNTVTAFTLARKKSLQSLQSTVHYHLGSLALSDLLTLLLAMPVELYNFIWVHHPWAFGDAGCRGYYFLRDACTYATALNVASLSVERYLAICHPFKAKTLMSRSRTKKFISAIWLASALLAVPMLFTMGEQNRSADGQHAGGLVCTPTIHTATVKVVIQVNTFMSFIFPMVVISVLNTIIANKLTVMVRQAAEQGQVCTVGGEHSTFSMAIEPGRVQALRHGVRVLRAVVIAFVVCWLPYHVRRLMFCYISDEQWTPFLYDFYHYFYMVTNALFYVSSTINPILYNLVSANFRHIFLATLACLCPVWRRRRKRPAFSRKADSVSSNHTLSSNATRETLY
NTR1 on HT29 or NTR1-expressing HEK293 cells, sequence (P30989 whole entry): as above

In the case of “1206-Glutar-Ttds3-Asn-Ala-Val-Pro-Asn-Leu-Arg-Gly-Asp-Leu-Gln-Val-Leu-Ala-Gln-Lys-Val-Ala-Arg-Thr-GA (peptide)”, in test [1], the Agonistic Effect EC50 [nM], functional Ca2+ mobilisation assay is above 50000 nM and the Antagonistic Effect IC50 [nM], functional Ca2+ mobilisation assay worked out at 38 nM. The negative logarithm of the IC50 (pIC50) in test [2] was 8.00.
In test [1], “1206-Glutar-Ttds-Lys(1206-Glutar-Ttds)-Ttds-Asn-Ala-Val-Pro-Asn-Leu-Arg-Gly-Asp-Leu-Gln-Val-Leu-Ala- (peptide)” gave an Agonistic Effect EC50 [nM], functional Ca2+ mobilisation assay above 50000 nM and an Antagonistic Effect IC50 [nM], functional Ca2+ mobilisation assay of 12 nM. For the same substance, the pIC50 in test [2] was 8.12.
In test [1], “1206-Glutar-Ttds-Lys(DOTA)-Ttds-GABA-Asn-Ala-Val-Pro-Asn-Leu-Arg-Gly-Asp-Leu-Gln-Val-Leu-Ala-Gln-Lys (peptide)” displayed an Agonistic Effect EC50 [nM], functional Ca2+ mobilisation assay above 50000 nM and an Antagonistic Effect IC50 [nM], functional Ca2+ mobilisation assay of 18 nM. For the same substance, the pIC50 in test [2] is 8.00.
“alpha-dendrotoxin (from UniProt P00980 1-59) (peptide)” had a negative logarithm of the Ki (pKi) with KV channel of 9.70.
Substance “apamin (from UniProt P01500 28-45) (peptide)” gave a pKi with SKCa channel of 11.08.
The substance “somatostatin-14 (from UniProt P61278 103-116) (peptide)” showed a pKi in test [3] of 9.96.

A word on the pIC50: it is the IC50 on a negative log10 scale, so that one unit is a factor of ten. What is called pKi is −log10 of the Ki, conventionally taken in molar units. Low values mean a high Ki, high ones a low Ki.

The record behind these values is patent US20170119913A1.
